According to IntAct's records for PubMed 23892456:

How the values were obtained:
[1] = molecular target: nanog_mouse Nanog (UniProt Q80Z64)
[2] = molecular target: nanog_mouse Nanog (UniProt Q80Z64); remark: listed apart in the source
[3] = molecular target: nanog_mouse Nanog (UniProt Q80Z64); remark: listed apart in the source

nanog_mouse Nanog, sequence (Q80Z64 whole entry): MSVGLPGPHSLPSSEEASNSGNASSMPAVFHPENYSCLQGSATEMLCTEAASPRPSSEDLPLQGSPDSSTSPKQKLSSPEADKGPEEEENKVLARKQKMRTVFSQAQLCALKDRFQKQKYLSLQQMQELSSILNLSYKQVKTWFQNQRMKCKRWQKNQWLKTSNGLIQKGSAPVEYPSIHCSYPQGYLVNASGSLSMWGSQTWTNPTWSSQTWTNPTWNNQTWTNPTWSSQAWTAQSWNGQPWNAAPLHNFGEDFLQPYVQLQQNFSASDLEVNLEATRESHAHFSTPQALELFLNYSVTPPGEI
Transcription factor SOX-2 (Mus musculus), P48432 S228A, sequence (P48432 whole entry S228A): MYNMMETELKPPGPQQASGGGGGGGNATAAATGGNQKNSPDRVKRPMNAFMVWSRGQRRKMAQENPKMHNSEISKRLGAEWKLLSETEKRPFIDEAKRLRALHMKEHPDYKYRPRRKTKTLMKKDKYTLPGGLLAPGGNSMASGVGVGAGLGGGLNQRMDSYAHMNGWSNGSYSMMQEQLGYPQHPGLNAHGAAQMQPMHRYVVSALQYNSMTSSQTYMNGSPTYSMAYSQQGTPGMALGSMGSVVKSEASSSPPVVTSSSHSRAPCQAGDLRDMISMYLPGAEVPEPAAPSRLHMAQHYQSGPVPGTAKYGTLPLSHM
Transcription factor SOX-2 (Mus musculus), P48432 T217A, sequence (P48432 whole entry T217A): as the sequence (P48432 whole entry S228A) above, with T217A, A228S counted along it
Transcription factor SOX-2 (Mus musculus), P48432 T224A, sequence (P48432 whole entry T224A): as the sequence (P48432 whole entry S228A) above, with T224A, A228S counted along it
Transcription factor SOX-2 (Mus musculus), P48432 T217A;T224A;S228A, sequence (P48432 whole entry T217A/T224A/S228A): as the sequence (P48432 whole entry S228A) above, with T217A, T224A counted along it

| effect of a mutation on the interaction [1] | Substance | other results |
| --- | --- | --- |
| disrupting interaction | Transcription factor SOX-2 (Mus musculus), P48432 S228A | – |
| – | Transcription factor SOX-2 (Mus musculus), P48432 T217A | effect of a mutation on the interaction [2]: disrupting interaction |
| – | Transcription factor SOX-2 (Mus musculus), P48432 T217A;T224A;S228A | effect of a mutation on the interaction [3]: disrupting interaction |
| disrupting interaction | Transcription factor SOX-2 (Mus musculus), P48432 T224A | – |
